{"source": "the supplement of paper PMC11246515", "experiment": "total protein half-life in vivo (active degradation + dilution); higher = more stable protein", "key": {"[1]": {"conditions": "E. coli NCM3722 delta-clpP delta-lon delta-hslV, growth: N-lim chemostat, doubling time 6 h"}, "[2]": {"conditions": "E. coli NCM3722 delta-clpP, growth: N-lim chemostat, doubling time 6 h"}, "[3]": {"conditions": "E. coli NCM3722 delta-hslV, growth: N-lim chemostat, doubling time 6 h"}, "[4]": {"conditions": "E. coli NCM3722 delta-lon, growth: N-lim chemostat, doubling time 6 h"}, "[5]": {"conditions": "E. coli NCM3722 delta-smpB, growth: N-lim chemostat, doubling time 6 h"}, "[6]": {"conditions": "wild type E. coli NCM3722, growth: C-lim chemostat, doubling time 3 h"}, "[7]": {"conditions": "wild type E. coli NCM3722, growth: C-lim chemostat, doubling time 12 h"}, "[8]": {"conditions": "wild type E. coli NCM3722, growth: N-lim chemostat, doubling time 6 h"}, "[9]": {"conditions": "wild type E. coli NCM3722, growth: N-lim chemostat, doubling time 12 h"}, "[10]": {"conditions": "wild type E. coli NCM3722, growth: P-lim chemostat, doubling time 6 h"}, "[11]": {"conditions": "wild type E. coli NCM3722, growth: P-lim chemostat, doubling time 12 h"}, "[12]": {"conditions": "wild type E. coli NCM3722, growth: C-lim chemostat, doubling time 6 h"}}, "note": "± gives the standard deviation of the averaged measurements."}
{"sequence": "MDLLYRVKTLWAALRGNHYTWPAIDITLPGNRHFHLIGSIHMGSHDMAPLPTRLLKKLKNADALIVEADVSTSDTPFANLPACEALEERISEEQLQNLQHISQEMGISPSLFSTQPLWQIAMVLQATQAQKLGLRAEYGIDYQLLQAAKQQHKPVIELEGAENQIAMLLQLPDKGLALLDDTLTHWHTNARLLQQMMSWWLNAPPQNNDITLPNTFSQSLYDVLMHQRNLAWRDKLRAMPPGRYVVAVGALHLYGEGNLPQMLR", "values": [{"measurement": "total protein half-life in vivo", "setting": "[1]", "value": 5.23, "unit": "h"}, {"measurement": "total protein half-life in vivo", "setting": "[2]", "value": 5.02, "unit": "h"}, {"measurement": "total protein half-life in vivo", "setting": "[3]", "value": 5.67, "unit": "h"}, {"measurement": "total protein half-life in vivo", "setting": "[4]", "value": 5.61, "unit": "h"}, {"measurement": "total protein half-life in vivo", "setting": "[5]", "value": "5.46 ± 0.086", "unit": "h"}, {"measurement": "total protein half-life in vivo", "setting": "[6]", "value": "2.97 ± 0.043", "unit": "h"}, {"measurement": "total protein half-life in vivo", "setting": "[7]", "value": 11.5, "unit": "h"}, {"measurement": "total protein half-life in vivo", "setting": "[8]", "value": "5.74 ± 0.45", "unit": "h"}, {"measurement": "total protein half-life in vivo", "setting": "[9]", "value": 12.5, "unit": "h"}, {"measurement": "total protein half-life in vivo", "setting": "[10]", "value": "5.75 ± 0.62", "unit": "h"}, {"measurement": "total protein half-life in vivo", "setting": "[11]", "value": "10.6 ± 0.083", "unit": "h"}]}
{"sequence": "MDLNTLISQYGYAALVIGSLAEGETVTLLGGVAAHQGLLKFPLVVLSVALGGMIGDQVLYLCGRRFGGKLLRRFSKHQDKIERAQKLIQRHPYLFVIGTRFMYGFRVIGPTLIGASQLPPKIFLPLNILGAFAWALIFTTIGYAGGQVIAPWLHNLDQHLKHWVWLILVVVLVVGVRWWLKRRGKKKPDHQA", "values": [{"measurement": "total protein half-life in vivo", "setting": "[1]", "value": 6.78, "unit": "h"}, {"measurement": "total protein half-life in vivo", "setting": "[12]", "value": 5.72, "unit": "h"}, {"measurement": "total protein half-life in vivo", "setting": "[9]", "value": 10.9, "unit": "h"}, {"measurement": "total protein half-life in vivo", "setting": "[10]", "value": 6.18, "unit": "h"}, {"measurement": "total protein half-life in vivo", "setting": "[11]", "value": 13.6, "unit": "h"}]}
{"sequence": "MDLRDLKTFLHLAESRHFGRSARAMHVSPSTLSRQIQRLEEDLGQPLFVRDNRTVTLTEAGEELRVFAQQTLLQYQQLRHTIDQQGPSLSGELHIFCSVTAAYSHLPPILDRFRAEHPSVEIKLTTGDAADAMEKVVTGEADLAIAGKPETLPGAVAFSMLENLAVVLIAPALPCPVRNQVSVEKPDWSTVPFIMADQGPVRRRIELWFRRNKISNPMIYATVGGHEAMVSMVALGCGVALLPEVVLENSPEPVRNRVMILERSDEKTPFELGVCAQKKRLHEPLIEAFWKILPNHK", "values": [{"measurement": "total protein half-life in vivo", "setting": "[1]", "value": "6.95 ± 1.4", "unit": "h"}, {"measurement": "total protein half-life in vivo", "setting": "[2]", "value": "6.14 ± 0.2", "unit": "h"}, {"measurement": "total protein half-life in vivo", "setting": "[3]", "value": "5.87 ± 0.32", "unit": "h"}, {"measurement": "total protein half-life in vivo", "setting": "[4]", "value": "6.22 ± 0.23", "unit": "h"}, {"measurement": "total protein half-life in vivo", "setting": "[5]", "value": "6.35 ± 1.1", "unit": "h"}, {"measurement": "total protein half-life in vivo", "setting": "[6]", "value": "2.78 ± 0.13", "unit": "h"}, {"measurement": "total protein half-life in vivo", "setting": "[12]", "value": "5.47 ± 0.66", "unit": "h"}, {"measurement": "total protein half-life in vivo", "setting": "[7]", "value": "11.4 ± 3.2", "unit": "h"}, {"measurement": "total protein half-life in vivo", "setting": "[8]", "value": "5.9 ± 0.012", "unit": "h"}, {"measurement": "total protein half-life in vivo", "setting": "[9]", "value": "10.9 ± 1.1", "unit": "h"}, {"measurement": "total protein half-life in vivo", "setting": "[10]", "value": "5.48 ± 0.1", "unit": "h"}, {"measurement": "total protein half-life in vivo", "setting": "[11]", "value": "11 ± 0.99", "unit": "h"}]}
{"sequence": "MDMDLNNRLTEDETLEQAYDIFLELAADNLDPADVLLFNLQFEERGGAELFDPAEDWQEHVDFDLNPDFFAEVVIGLADSEDGEINDVFARILLCREKDHKLCHIIWRE [P0A8L7]", "values": [{"measurement": "total protein half-life in vivo", "setting": "[1]", "value": "5.64 ± 0.096", "unit": "h"}, {"measurement": "total protein half-life in vivo", "setting": "[2]", "value": "4.35 ± 0.49", "unit": "h"}, {"measurement": "total protein half-life in vivo", "setting": "[3]", "value": 3.78, "unit": "h"}, {"measurement": "total protein half-life in vivo", "setting": "[4]", "value": "5.055 ± 0.0098", "unit": "h"}, {"measurement": "total protein half-life in vivo", "setting": "[5]", "value": 3.64, "unit": "h"}, {"measurement": "total protein half-life in vivo", "setting": "[6]", "value": "2.74 ± 0.24", "unit": "h"}, {"measurement": "total protein half-life in vivo", "setting": "[12]", "value": "5.72 ± 0.71", "unit": "h"}, {"measurement": "total protein half-life in vivo", "setting": "[7]", "value": 8.89, "unit": "h"}, {"measurement": "total protein half-life in vivo", "setting": "[8]", "value": 3.83, "unit": "h"}, {"measurement": "total protein half-life in vivo", "setting": "[9]", "value": "7.29 ± 0.12", "unit": "h"}, {"measurement": "total protein half-life in vivo", "setting": "[10]", "value": "> 8", "unit": "h"}, {"measurement": "total protein half-life in vivo", "setting": "[11]", "value": "11.2 ± 3.8", "unit": "h"}]}
{"sequence": "MDMHSGTFNPQDFAWQGLTLTPAAAIHIRELVAKQPGMVGVRLGVKQTGCAGFGYVLDSVSEPDKDDLLFEHDGAKLFVPLQAMPFIDGTEVDFVREGLNQIFKFHNPKAQNECGCGESFGV", "values": [{"measurement": "total protein half-life in vivo", "setting": "[1]", "value": "4.64 ± 0.11", "unit": "h"}, {"measurement": "total protein half-life in vivo", "setting": "[2]", "value": 2.79, "unit": "h"}, {"measurement": "total protein half-life in vivo", "setting": "[4]", "value": 3.64, "unit": "h"}, {"measurement": "total protein half-life in vivo", "setting": "[5]", "value": 2.14, "unit": "h"}, {"measurement": "total protein half-life in vivo", "setting": "[6]", "value": "1.94 ± 0.049", "unit": "h"}, {"measurement": "total protein half-life in vivo", "setting": "[12]", "value": "3.99 ± 0.5", "unit": "h"}, {"measurement": "total protein half-life in vivo", "setting": "[7]", "value": 4.5, "unit": "h"}, {"measurement": "total protein half-life in vivo", "setting": "[8]", "value": "1.86 ± 0.16", "unit": "h"}, {"measurement": "total protein half-life in vivo", "setting": "[9]", "value": 2.58, "unit": "h"}, {"measurement": "total protein half-life in vivo", "setting": "[10]", "value": 2.69, "unit": "h"}, {"measurement": "total protein half-life in vivo", "setting": "[11]", "value": "4.79 ± 0.6", "unit": "h"}]}
{"sequence": "MDNAVDRHVFYISDGTAITAEVLGHAVMSQFPVTISSITLPFVENESRARAVKDQIDAIYHQTGVRPLVFYSIVLPEIRAIILQSEGFCQDIVQALVAPLQQEMKLDPTPIAHRTHGLNPNNLNKYDARIAAIDYTLAHDDGISLRNLDQAQVILLGVSRCGKTPTSLYLAMQFGIRAANYPFIADDMDNLVLPASLKPLQHKLFGLTIDPERLAAIREERRENSRYASLRQCRMEVAEVEALYRKNQIPWINSTNYSVEEIATKILDIMGLSRRMY [P0A8A4]", "values": [{"measurement": "total protein half-life in vivo", "setting": "[1]", "value": "5.48 ± 1.3", "unit": "h"}, {"measurement": "total protein half-life in vivo", "setting": "[2]", "value": "4.186 ± 0.013", "unit": "h"}, {"measurement": "total protein half-life in vivo", "setting": "[3]", "value": "4.0273 ± 0.0032", "unit": "h"}, {"measurement": "total protein half-life in vivo", "setting": "[4]", "value": "4.39 ± 0.15", "unit": "h"}, {"measurement": "total protein half-life in vivo", "setting": "[5]", "value": "3.98 ± 0.32", "unit": "h"}, {"measurement": "total protein half-life in vivo", "setting": "[6]", "value": "3.15 ± 0.21", "unit": "h"}, {"measurement": "total protein half-life in vivo", "setting": "[12]", "value": "5.64 ± 0.63", "unit": "h"}, {"measurement": "total protein half-life in vivo", "setting": "[7]", "value": "9.92 ± 1.4", "unit": "h"}, {"measurement": "total protein half-life in vivo", "setting": "[8]", "value": "4.1527 ± 0.0038", "unit": "h"}, {"measurement": "total protein half-life in vivo", "setting": "[9]", "value": "6.76 ± 0.45", "unit": "h"}, {"measurement": "total protein half-life in vivo", "setting": "[10]", "value": "5.48 ± 0.51", "unit": "h"}, {"measurement": "total protein half-life in vivo", "setting": "[11]", "value": "10.7 ± 0.8", "unit": "h"}]}
{"sequence": "MDQAGIIRDLLIWLEGHLDQPLSLDNVAAKAGYSKWHLQRMFKDVTGHAIGAYIRARRLSKSAVALRLTARPILDIALQYRFDSQQTFTRAFKKQFAQTPALYRRSPEWSAFGIRPPLRLGEFTMPEHKFVTLEDTPLIGVTQSYSCSLEQISDFRHEMRYQFWHDFLGNAPTIPPVLYGLNETRPSQDKDDEQEVFYTTALAQDQADGYVLTGHPVMLQGGEYVMFTYEGLGTGVQEFILTVYGTCMPMLNLTRRKGQDIERYYPAEDAKAGDRPINLRCELLIPIRR [P0ACI0]", "values": [{"measurement": "total protein half-life in vivo", "setting": "[1]", "value": "5.25 ± 0.62", "unit": "h"}, {"measurement": "total protein half-life in vivo", "setting": "[2]", "value": "5.39 ± 0.29", "unit": "h"}, {"measurement": "total protein half-life in vivo", "setting": "[3]", "value": "5.7 ± 1.1", "unit": "h"}, {"measurement": "total protein half-life in vivo", "setting": "[4]", "value": "5.49 ± 0.38", "unit": "h"}, {"measurement": "total protein half-life in vivo", "setting": "[5]", "value": "5.37 ± 0.28", "unit": "h"}, {"measurement": "total protein half-life in vivo", "setting": "[6]", "value": "2.92 ± 0.065", "unit": "h"}, {"measurement": "total protein half-life in vivo", "setting": "[12]", "value": "6.47 ± 0.27", "unit": "h"}, {"measurement": "total protein half-life in vivo", "setting": "[7]", "value": "11.3 ± 0.12", "unit": "h"}, {"measurement": "total protein half-life in vivo", "setting": "[8]", "value": "5.15 ± 0.4", "unit": "h"}, {"measurement": "total protein half-life in vivo", "setting": "[9]", "value": "9.41 ± 0.68", "unit": "h"}, {"measurement": "total protein half-life in vivo", "setting": "[10]", "value": "5.31 ± 0.06", "unit": "h"}, {"measurement": "total protein half-life in vivo", "setting": "[11]", "value": "11.8 ± 0.37", "unit": "h"}]}
